The source of these data is patent US20240132589A1 (ONCORESPONSE, published 2024).

In assay [1] the target is T1, LILRB2-Fc protein (human, UniProt Q8N423 22-460, limits assumed).
T1 construct: also called human LILRB2-Fc; not shown: Fc part
Briefly: blocking ELISA, LILRB2-Fc binding to coated monomer HLA-G; Exp II. How it is done:
(§1) Tumor-associated HLA-G is an HLA Class I ligand for LILRB2. Binding of HLA-G to LILRB2 induces an immune suppressive signal in LILRB2 expressing myeloid cells. To determine if the anti-LILRB2 antibodies block the HLA-G-LILRB2 interaction and prevent the induction of an inhibitory signal, blocking ELISA assays in a dose titration were performed. 384-well plates were coated with monomer HLA-G (Fred Hutchinson Cancer Research Center, No. bHLA-G) at a concentration of 5 μg/mL, diluted in PBS, then plates were incubated at RT for 1 hour. Plates were rinsed with Wash Buffer three times, then blocked with Blocking Buffer A for 30 minutes at RT. During blocking incubation step, LILRB2-Fc protein and antibody titrations were prepared in Blocking Buffer A. LILRB2-Fc protein was then incubated with antibody titrations for 30 minutes at RT to allow for binding prior to addition onto plate. Plates were rinsed three times with Wash Buffer, then 25 μL of protein/antibody mixture was added per well and incubated for 1 hour at RT. Following antibody incubation, plates were washed three times with Wash Buffer. Anti-human IgG Fc-HRP secondary antibody was diluted and added at 25 μL/well. Plates were incubated in the dark for 1 hour at RT. Following secondary antibody incubation, plates were washed four times with Wash Buffer. 25 μL/well ultra-neat TMB was added per well for development and incubated for 5 minutes at RT. Reaction was stopped using 0.3 M HCl (25 μL/well). Absorbance was read at 450 nm using the Envision. The IC₅₀ for HLA-G blocking by clone B2A-IgG4 was 0.066 μg/mL.
(§2) Select humanized IgG4 variant antibodies were tested for their ability to block binding of human LILRB2-Fc to monomer HLA-G by ELISA, using the method described in Example 7.
In general terms: An ELISA detects its analyte on a solid surface through an enzyme-linked reagent.

Assay [2] has as its target T1, LILRB2-Fc protein. Briefly: blocking ELISA, LILRB2-Fc binding to coated monomer HLA-G; Exp I. The protocol:
as §1, §2

Assay [3] concerns the target T2, Recombinant human LILRB2 protein (ELISA antigen) (human, UniProt Q8N423 22-460).
T2 construct: also called LILRB2-His; recombinant LILRB2
Briefly: ELISA, immobilized LILRB2-His; conditioned media of transient transfections. The protocol:
(§3) To confirm binding to human and cynomolgus LILRB2, antibodies in supernatants were evaluated for binding by enzyme-linked immunosorbent assay (ELISA). Recombinant LILRB2 proteins (human: SEQ ID NO: 48; cynomolgus) were diluted in PBS to 2 μg/mL and added to 384-well high-binding ELISA plates (Greiner Bio-One Microlon™) at 25 μL/well and incubated at 4° C. overnight. The plates were washed three times with Wash Buffer (0.05% Tween® 20 in PBS), using a microplate washer and then blocked with 90 μL/well of ELISA Blocking Buffer A (1% BSA in PBS) for 1 hour at room temperature (RT). After blocking, 25 μL/well of LILRB2 antibodies or isotype control were added to the plates and incubated for 1 hour at RT. After primary antibody binding, plates were washed three times with Wash Buffer using a microplate washer. Secondary detection antibody (HRP-goat anti-rabbit Fab fragment) was diluted to 1:3000 in assay diluent (1% BSA in PBS) and 25 μL/well was added to plates and incubated at RT protected from light for 1 hour. Following incubation, plates were washed four times with Wash Buffer, using a microplate washer. After removal of the final wash, 25 μL/well of 1-Step™ Ultra TMB-ELISA Substrate Solution (Thermo Fisher, No. 34028) was added and plates were incubated for 5-10 min at RT, protected from light. After development, the reaction was stopped by addition of 25 μL/well of 0.3 M HCl, and plates were read using an EnVision (Perkin Elmer) microplate reader at 450 nm. EC₅₀ values were calculated based on log concentration of the primary antibodies at optical density at 450 nm.
Twenty-five IgG4 variants were expressed in mammalian cell culture as a combinatorial library of the five light and five heavy chains. In addition, B2A-IgG4 was included as a transfection control. The conditioned media from these transient transfections were assayed for human IgG concentration. A plate-based ELISA (see Example 2) was performed in which LILRB2-His was immobilized, and binding of humanized mAb variants was detected via an anti-human IgG4 HRP-labeled secondary antibody. The parental rabbit/human chimera clone transfection served as the benchmark EC₅₀ positive control.

Assay [4] addresses T2, Recombinant human LILRB2 protein (ELISA …). Kind of assay: ELISA, plate-coated recombinant human LILRB2. How it is done: as §3
(§4) Select humanized variant antibodies were purified and tested for their ability to bind human LILRB2 by ELISA, using the method described in Example 2, and binding to HEK293T cells expressing human LILRB2, using the method described in Example 4. Representative data are shown for IgG4 variants in Table 6.

Assay [5] concerns the target T3, Human LILRB2 on stably transduced HEK293T cells (human, UniProt Q8N423 22-597).
T3 construct: Lentiviral transduction (G&P Biosciences LTV2992); also called HEK293T-LILRB2; LILRB2-expressing HEK293T cells
Kind of assay: flow cytometry, HEK293T cells stably expressing human LILRB2. How it is done:
To confirm binding of LILRB2 antibodies, flow cytometry binding assays were performed using HEK293T cells stably expressing human LILRB2 (Example 3). […] The B2A-IgG1 and B2A-IgG4 chimeras bound the LILRB2-expressing HEK293T cells, with equivalent EC₅₀ values of 0.21 nM and 0.30 nM respectively.
as §4
A general note: Flow cytometry measures light scatter and fluorescence of single cells or particles in a stream.

T2 sequence (Q8N423 other isoform, or with tags, fused parts or gaps limits assumed): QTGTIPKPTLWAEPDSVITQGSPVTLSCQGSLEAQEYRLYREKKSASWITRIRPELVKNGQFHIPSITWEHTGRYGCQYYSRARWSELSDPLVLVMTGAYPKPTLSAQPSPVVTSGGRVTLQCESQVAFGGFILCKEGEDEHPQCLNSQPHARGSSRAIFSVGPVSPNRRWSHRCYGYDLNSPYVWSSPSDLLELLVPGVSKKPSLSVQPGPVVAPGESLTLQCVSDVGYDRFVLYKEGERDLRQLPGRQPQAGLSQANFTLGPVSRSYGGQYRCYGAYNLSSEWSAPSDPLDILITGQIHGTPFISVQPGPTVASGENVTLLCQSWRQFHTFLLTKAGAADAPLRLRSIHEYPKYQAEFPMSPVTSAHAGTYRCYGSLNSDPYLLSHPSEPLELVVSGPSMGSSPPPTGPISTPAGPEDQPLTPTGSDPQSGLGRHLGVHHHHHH
T1 sequence (Q8N423 22-460 limits assumed): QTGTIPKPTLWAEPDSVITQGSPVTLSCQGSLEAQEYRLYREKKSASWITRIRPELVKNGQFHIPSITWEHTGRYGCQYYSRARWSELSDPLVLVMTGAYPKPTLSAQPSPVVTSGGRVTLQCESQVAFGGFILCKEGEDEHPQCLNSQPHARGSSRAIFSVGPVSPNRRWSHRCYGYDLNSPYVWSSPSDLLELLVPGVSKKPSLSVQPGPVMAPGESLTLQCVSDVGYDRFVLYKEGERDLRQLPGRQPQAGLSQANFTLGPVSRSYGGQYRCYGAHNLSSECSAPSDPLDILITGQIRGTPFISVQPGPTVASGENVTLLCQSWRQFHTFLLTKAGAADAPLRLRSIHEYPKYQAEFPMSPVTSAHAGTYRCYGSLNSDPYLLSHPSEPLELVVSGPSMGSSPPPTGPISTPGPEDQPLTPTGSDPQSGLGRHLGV
T3 sequence (Q8N423 other isoform, or with tags, fused parts or gaps limits assumed): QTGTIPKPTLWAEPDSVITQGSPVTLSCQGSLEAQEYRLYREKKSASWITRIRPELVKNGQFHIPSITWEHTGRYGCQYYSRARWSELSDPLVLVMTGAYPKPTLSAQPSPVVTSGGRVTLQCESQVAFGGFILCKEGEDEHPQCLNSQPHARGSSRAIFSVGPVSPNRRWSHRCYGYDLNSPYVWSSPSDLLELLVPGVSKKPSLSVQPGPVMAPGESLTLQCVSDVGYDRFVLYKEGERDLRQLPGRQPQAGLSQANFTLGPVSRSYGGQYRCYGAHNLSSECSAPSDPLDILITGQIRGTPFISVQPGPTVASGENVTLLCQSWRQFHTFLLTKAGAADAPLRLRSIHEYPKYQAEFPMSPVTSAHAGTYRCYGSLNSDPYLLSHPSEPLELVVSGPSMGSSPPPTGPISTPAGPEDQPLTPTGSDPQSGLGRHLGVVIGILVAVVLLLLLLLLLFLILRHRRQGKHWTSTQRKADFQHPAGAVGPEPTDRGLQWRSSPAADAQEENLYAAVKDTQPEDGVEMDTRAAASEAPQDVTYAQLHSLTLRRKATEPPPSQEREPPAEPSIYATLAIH

B1: B2H4-35 (antibody, V domains shown)
VH: QVQLVESGGRVVQPGTPLRLSCAASGFSLSTYAMSWVRQAPGKGLEWVAWIYNDGSTYYAAWAKGRFTISRDTSKNTLYLQTNSLKPDDTAVYYCAREGDYIGYFNIWGQGTLVTVSS
VL: DVVMTQTPSSVSAALGGTVTIKCQASQSIGSNLAWYQLKPGQRPKLLIYAAATLASGGSSRFKGSGSGTDFTLTISSLEPADAATYYCQSYVSGSSDVAFGGGTEVVVK
notes: Humanized variant, human IgG4 / kappa
For orientation: IC50 means the concentration needed to halve the response being measured. A high value points to lower potency. Broadly, the EC50 is the concentration that produces a half-maximal response. Turning to B1, the IC50 with LILRB2-Fc protein [1] worked out at 5140 ng/mL; with LILRB2-Fc protein [2], 5160 ng/mL. In addition, the EC50 was found to be 4.67 ng/mL in assay [3], 2.75 ng/mL in assay [4] and 0.21 ng/mL in assay [5]. Moreover, the “BMAX [gMFI]” value in assay [5] stood at 9990 gMFI.

B2: B2H4-51 (antibody, V domains shown)
VH: EVQLLESGGGLVQPGTSLTLSCAASGFSLSTYAMSWVRQAPGKGLEWIGWIYNDGSTYYAAWAKGRFTISKDTSKTTLYLQITSLRAEDTATYFCAREGDYIGYFNIWGQGTLVTVSS
VL: DIQMTQSPSSLSASVGDRVTITCQASQSIGSNLAWYQLKPGQRPKLLIYAAATLASGVPSRFKGSGSGTDFTLTISSLQSEDAATYYCQSYVSGSSDVAFGGGTEVVVK
notes: as for B1
In the case of B2, the IC50 with LILRB2-Fc protein [1] stood at 9050 ng/mL; in the assay with LILRB2-Fc protein [2], 8110 ng/mL. The EC50 amounted to 3.85 ng/mL in assay [3], 3.27 ng/mL in assay [4] and 0.37 ng/mL in assay [5]. The “BMAX [gMFI]” value in assay [5] was 10700 gMFI.

B3: B2H4-13 (antibody, V domains shown)
VH: QVQLEESGGRVVQPGRSLRLSCAASGFSLSTYAMSWVRQAPGKGLEWIGWIYNDGSTYYAAWAKGRFTISKDTSKTTVFLQMNSLKPDDTATYFCAREGDYIGYFNIWGQGTLVTVSS
VL: DIEMTQSPSSVSASVGDRVTLTCQASQSIGSNLAWYQQKPGQAPKLLIYAAATLASGVPSRFKGSGSGTDFTLTISSLQPEDFATYYCQSYVSGSSDVAFGGGTEVVVK
notes: as for B1
Regarding B3, the IC50 in the assay with LILRB2-Fc protein [1] is 5970 ng/mL; with LILRB2-Fc protein [2], 5850 ng/mL. In addition, the results for the EC50 in assay [3], in assay [4] and in assay [5] were 4.5 ng/mL, 3.55 ng/mL and 0.31 ng/mL, respectively. Besides, in assay [5], the “BMAX [gMFI]” value is 9950 gMFI.
